Laboratory results as given in the Human Domainome abundance scans (Beltran et al. 2025).
± gives the uncertainty stated by the source.

experiment: abundance fitness (aPCA) (normalised: wild type 0, dead -1); higher = more abundant; growth selection in yeast, the domain comes from the species named; settings: Homo sapiens

Substance | abundance fitness
Transcription factor SOX-4 L99A, Q06945 | 0.041 ± 0.062
Transcription factor SOX-4 M120L, Q06945 | -0.047 ± 0.082

same assay, conditions: Saccharomyces cerevisiae (strain ATCC 204508 / S288c)

Substance | abundance fitness
E3 ubiquitin-protein ligase RSP5 T354V, P39940 | -0.445 ± 0.043
E3 ubiquitin-protein ligase RSP5 R346Q, P39940 | 0.165 ± 0.066
E3 ubiquitin-protein ligase RSP5 R364W, P39940 | -0.072 ± 0.048
E3 ubiquitin-protein ligase RSP5 R355T, P39940 | -0.257 ± 0.068
E3 ubiquitin-protein ligase RSP5 V360Q, P39940 | -0.184 ± 0.15
E3 ubiquitin-protein ligase RSP5 E338V, P39940 | -0.278 ± 0.053
E3 ubiquitin-protein ligase RSP5 G331E, P39940 | -0.127 ± 0.049
E3 ubiquitin-protein ligase RSP5 R346T, P39940 | 0.094 ± 0.053
E3 ubiquitin-protein ligase RSP5 R340D, P39940 | -0.256 ± 0.074
E3 ubiquitin-protein ligase RSP5 N353D, P39940 | -0.147 ± 0.15
E3 ubiquitin-protein ligase RSP5 T327E, P39940 | 0.105 ± 0.056
E3 ubiquitin-protein ligase RSP5 T342L, P39940 | -0.074 ± 0.065
E3 ubiquitin-protein ligase RSP5 R346G, P39940 | 0.016 ± 0.044
E3 ubiquitin-protein ligase RSP5 T354P, P39940 | -1.07 ± 0.078
E3 ubiquitin-protein ligase RSP5 T354L, P39940 | -0.266 ± 0.049
E3 ubiquitin-protein ligase RSP5 W359P, P39940 | -0.447 ± 0.059
E3 ubiquitin-protein ligase RSP5 R340F, P39940 | -0.155 ± 0.16
E3 ubiquitin-protein ligase RSP5 Q339P, P39940 | -0.297 ± 0.062
E3 ubiquitin-protein ligase RSP5 G336S, P39940 | -0.471 ± 0.061
E3 ubiquitin-protein ligase RSP5 G325S, P39940 | 0.069 ± 0.094
E3 ubiquitin-protein ligase RSP5 R346M, P39940 | 0.222 ± 0.067
E3 ubiquitin-protein ligase RSP5 Y348R, P39940 | -0.919 ± 0.049
E3 ubiquitin-protein ligase RSP5 Y348F, P39940 | -0.146 ± 0.09
E3 ubiquitin-protein ligase RSP5 T358L, P39940 | -0.886 ± 0.063
E3 ubiquitin-protein ligase RSP5 T358P, P39940 | -0.955 ± 0.067

Substance | abundance fitness
E3 ubiquitin-protein ligase RSP5 N353T, P39940 | -0.113 ± 0.059
E3 ubiquitin-protein ligase RSP5 E332Y, P39940 | -0.184 ± 0.066
E3 ubiquitin-protein ligase RSP5 D351L, P39940 | -1.08 ± 0.059
E3 ubiquitin-protein ligase RSP5 V350K, P39940 | -0.537 ± 0.065
E3 ubiquitin-protein ligase RSP5 R355H, P39940 | -0.101 ± 0.063
E3 ubiquitin-protein ligase RSP5 G331S, P39940 | -0.186 ± 0.046
E3 ubiquitin-protein ligase RSP5 T326H, P39940 | -0.051 ± 0.078
E3 ubiquitin-protein ligase RSP5 G331K, P39940 | -0.121 ± 0.046
E3 ubiquitin-protein ligase RSP5 T356I, P39940 | 0.404 ± 0.26
E3 ubiquitin-protein ligase RSP5 D361G, P39940 | -0.534 ± 0.047
E3 ubiquitin-protein ligase RSP5 G331M, P39940 | -0.02 ± 0.055
E3 ubiquitin-protein ligase RSP5 R363Y, P39940 | -0.667 ± 0.08
E3 ubiquitin-protein ligase RSP5 L333F, P39940 | -0.034 ± 0.054
E3 ubiquitin-protein ligase RSP5 N353H, P39940 | -0.563 ± 0.14
E3 ubiquitin-protein ligase RSP5 G336K, P39940 | -0.302 ± 0.062
E3 ubiquitin-protein ligase RSP5 D361I, P39940 | -0.632 ± 0.15
E3 ubiquitin-protein ligase RSP5 T354G, P39940 | -0.223 ± 0.043
E3 ubiquitin-protein ligase RSP5 T326Y, P39940 | -0.061 ± 0.072
E3 ubiquitin-protein ligase RSP5 A347G, P39940 | -0.043 ± 0.047
E3 ubiquitin-protein ligase RSP5 R340Q, P39940 | 0.001 ± 0.054
E3 ubiquitin-protein ligase RSP5 W359V, P39940 | -0.416 ± 0.045
E3 ubiquitin-protein ligase RSP5 N353V, P39940 | -0.217 ± 0.044
E3 ubiquitin-protein ligase RSP5 G336C, P39940 | -0.427 ± 0.063
E3 ubiquitin-protein ligase RSP5 S335D, P39940 | 0.205 ± 0.14
